In patent publication US20160251450A1:

Key:
[1] = biological target: Anti-OVA IgG (rabbit-derived); assay: ELISA: OVA coated, rabbit Anti-OVA IgG, then HRP-labeled anti-rabbit IgG instead of the hybrid, TMB (sample No. 8)
[2] = biological target: Anti-OVA IgG (rabbit-derived); assay: ELISA: OVA coated, rabbit Anti-OVA IgG, HRP-labeled anti-rabbit IgG. Signal against the no-antigen control
[3] = biological target: Anti-OVA IgG (rabbit-derived); assay: ELISA: OVA coated, rabbit Anti-OVA IgG, then K-tag pG alone (negative control), then HRP-labeled anti-guinea pig IgG, TMB. The signal needs a second free IgG-binding site
[4] = biological target: Anti-OVA IgG (rabbit-derived); assay: ELISA: OVA coated, rabbit Anti-OVA IgG, then wild-type pG sample (negative control), then HRP-labeled anti-guinea pig IgG, TMB. The signal needs a second free IgG-binding site

Substance: commercially available HRP-labeled anti-rabbit IgG (antibody)
- change in the absorbance at 370 nm (dO.D./min) [1]: 0.18 dO.D./min
- S/N ratio (No. 8 against No. 4 without antigen) [2]: 4.6

Substance: recombinant protein G with K-tag (K-tag pG), alone, not cross-linked to polymer
- change in the absorbance at 370 nm (dO.D./min) [3]: < 0.03 dO.D./min

Substance: wild-type pG having no introduced K-tag (thrombin-treated K-tag pG)
- change in the absorbance at 370 nm (dO.D./min) [4]: < 0.03 dO.D./min
